T1: MPDZ_10, O75970
T1 sequence (O75970 1624-1722, limits assumed, looked up): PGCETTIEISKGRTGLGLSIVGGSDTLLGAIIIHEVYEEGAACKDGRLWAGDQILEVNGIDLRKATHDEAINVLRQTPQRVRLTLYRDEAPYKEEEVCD

T2: RAPGEF6, Q8TEU7
T2 sequence (Q8TEU7 525-625, limits assumed, looked up): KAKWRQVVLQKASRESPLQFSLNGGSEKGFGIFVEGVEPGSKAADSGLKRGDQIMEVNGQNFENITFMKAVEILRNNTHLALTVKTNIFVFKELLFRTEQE

T3: APBA3_1, O96018
T3 sequence (O96018 389-490, limits assumed, looked up): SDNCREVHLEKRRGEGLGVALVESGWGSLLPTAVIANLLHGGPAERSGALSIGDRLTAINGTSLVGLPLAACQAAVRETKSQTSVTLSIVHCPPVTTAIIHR

T4: PARD3B_1, Q8TEW8
T4 sequence (Q8TEW8 196-299, limits assumed, looked up): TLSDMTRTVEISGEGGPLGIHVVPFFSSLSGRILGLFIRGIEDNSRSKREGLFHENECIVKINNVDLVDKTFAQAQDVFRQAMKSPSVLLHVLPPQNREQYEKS

T5: MPDZ_12, O75970
T5 sequence (O75970 1857-1958, limits assumed, looked up): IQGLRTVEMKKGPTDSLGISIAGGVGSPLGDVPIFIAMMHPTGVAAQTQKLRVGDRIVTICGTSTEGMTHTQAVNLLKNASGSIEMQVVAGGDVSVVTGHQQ

T6: NHERF3_1, Q5T2W1
T6 sequence (Q5T2W1 4-100, limits assumed, looked up): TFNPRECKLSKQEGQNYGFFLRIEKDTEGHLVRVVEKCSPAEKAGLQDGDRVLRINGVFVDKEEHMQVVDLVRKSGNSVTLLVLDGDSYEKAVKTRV

T7: DFNB31_3, Q9P202
T7 sequence (Q9P202 811-907, limits assumed, looked up): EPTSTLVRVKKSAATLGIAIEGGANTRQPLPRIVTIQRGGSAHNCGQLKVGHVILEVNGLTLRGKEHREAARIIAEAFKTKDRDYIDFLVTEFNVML

T8: SNTA1, Q13424
T8 sequence (Q13424 82-180, limits assumed, looked up): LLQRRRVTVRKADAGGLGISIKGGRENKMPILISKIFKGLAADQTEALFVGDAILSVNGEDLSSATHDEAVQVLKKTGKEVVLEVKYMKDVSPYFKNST

T9: LIN7C, Q9NUP9
T9 sequence (Q9NUP9 88-185, limits assumed, looked up): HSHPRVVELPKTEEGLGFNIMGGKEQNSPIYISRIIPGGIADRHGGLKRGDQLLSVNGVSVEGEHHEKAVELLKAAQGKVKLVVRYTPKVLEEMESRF

T10: SNTG1, Q9NSN8
T10 sequence (Q9NSN8 52-150, limits assumed, looked up): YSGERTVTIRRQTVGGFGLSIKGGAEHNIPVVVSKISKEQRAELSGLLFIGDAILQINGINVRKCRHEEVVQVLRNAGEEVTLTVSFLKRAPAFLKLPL


Legend:
Experiment in all cases: holdup assay
Design in all cases: key: below the threshold = too weak to quantify, mostly under pKd 3.1 to 4
Details in all cases: plain residues with an end cap or a label only (N-terminal biotin on a linker: ado-ado)
MPDZ_10, O75970 = biological target: T1, MPDZ_10, O75970
RAPGEF6, Q8TEU7 = biological target: T2, RAPGEF6, Q8TEU7
LDB3, O75112 = biological target: LDB3, O75112
Chain of LDB3, O75112 (O75112 1-94): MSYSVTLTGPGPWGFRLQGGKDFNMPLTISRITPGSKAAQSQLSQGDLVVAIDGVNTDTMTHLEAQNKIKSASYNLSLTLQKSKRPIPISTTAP

GOPC, Q9HD26 = biological target: GOPC, Q9HD26
APBA3_1, O96018 = biological target: T3, APBA3_1, O96018
FRMPD2_2, Q68DX3 = biological target: FRMPD2_2, Q68DX3
Chain of FRMPD2_2, Q68DX3 (Q68DX3 944-1038): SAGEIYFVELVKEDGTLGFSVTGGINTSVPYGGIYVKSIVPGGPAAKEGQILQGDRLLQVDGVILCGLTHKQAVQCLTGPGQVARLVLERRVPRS

SCRIB_1, Q14160 = biological target: SCRIB_1, Q14160
Chain of SCRIB_1, Q14160 (Q14160 718-814): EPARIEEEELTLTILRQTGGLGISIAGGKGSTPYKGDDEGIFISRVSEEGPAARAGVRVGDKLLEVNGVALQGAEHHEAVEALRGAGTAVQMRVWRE

PARD3B_1, Q8TEW8 = biological target: T4, PARD3B_1, Q8TEW8
NHERF2_2, Q15599 = biological target: NHERF2_2, Q15599
Chain of NHERF2_2, Q15599 (Q15599 142-238): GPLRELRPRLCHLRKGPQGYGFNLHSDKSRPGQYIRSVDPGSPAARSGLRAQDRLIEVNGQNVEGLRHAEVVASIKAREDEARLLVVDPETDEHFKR

GIPC2, Q8TF65 = biological target: GIPC2, Q8TF65
Chain of GIPC2, Q8TF65 (Q8TF65 112-203): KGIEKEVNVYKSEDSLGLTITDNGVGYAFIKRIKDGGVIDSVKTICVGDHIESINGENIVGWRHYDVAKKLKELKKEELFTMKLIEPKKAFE

MAGI2_2, Q86UL8 = biological target: MAGI2_2, Q86UL8
Chain of MAGI2_2, Q86UL8 (Q86UL8 410-522): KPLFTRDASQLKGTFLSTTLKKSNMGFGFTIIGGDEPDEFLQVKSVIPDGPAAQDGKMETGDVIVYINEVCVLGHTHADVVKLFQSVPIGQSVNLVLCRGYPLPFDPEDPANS

Inadl_1, Q8NI35 = biological target: Inadl_1, Q8NI35
Chain of Inadl_1, Q8NI35 (Q8NI35 113-229): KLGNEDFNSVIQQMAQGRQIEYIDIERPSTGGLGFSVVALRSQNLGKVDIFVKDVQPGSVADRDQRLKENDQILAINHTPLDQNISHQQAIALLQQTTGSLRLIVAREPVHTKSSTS

MAGI2_3, Q86UL8 = biological target: MAGI2_3, Q86UL8
Chain of MAGI2_3, Q86UL8 (Q86UL8 600-682): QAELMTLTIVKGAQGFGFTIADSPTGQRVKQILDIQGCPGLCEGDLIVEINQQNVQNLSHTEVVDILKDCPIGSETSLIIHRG

FRMPD4, Q14CM0 = biological target: FRMPD4, Q14CM0
Chain of FRMPD4, Q14CM0 (Q14CM0 67-160): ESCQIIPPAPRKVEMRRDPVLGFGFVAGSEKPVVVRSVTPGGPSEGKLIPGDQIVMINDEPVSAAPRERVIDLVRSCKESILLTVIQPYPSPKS

GRID2IP_1, A4D2P6 = biological target: GRID2IP_1, A4D2P6
Chain of GRID2IP_1, A4D2P6 (A4D2P6 1-87): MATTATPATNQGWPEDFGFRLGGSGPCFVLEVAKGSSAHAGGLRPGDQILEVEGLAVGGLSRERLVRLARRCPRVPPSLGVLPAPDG

MPDZ_12, O75970 = biological target: T5, MPDZ_12, O75970
NHERF3_1, Q5T2W1 = biological target: T6, NHERF3_1, Q5T2W1
DFNB31_3, Q9P202 = biological target: T7, DFNB31_3, Q9P202
DLG2_2, Q15700 = biological target: DLG2_2, Q15700
DLG5_1, Q8TDM6 = biological target: DLG5_1, Q8TDM6
Chain of DLG5_1, Q8TDM6 (Q8TDM6 617-713): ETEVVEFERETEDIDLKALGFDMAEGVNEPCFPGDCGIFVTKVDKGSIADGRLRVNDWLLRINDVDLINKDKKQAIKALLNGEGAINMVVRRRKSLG

IL16_4, Q14005 = biological target: IL16_4, Q14005
Chain of IL16_4, Q14005 (Q14005 1229-1329): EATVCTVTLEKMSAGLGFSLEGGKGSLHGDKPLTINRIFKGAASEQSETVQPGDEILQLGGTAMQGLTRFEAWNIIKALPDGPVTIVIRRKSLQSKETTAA

DLG2_3, Q15700 = biological target: DLG2_3, Q15700
GRIP2_6, Q9C0E4 = biological target: GRIP2_6, Q9C0E4
Chain of GRIP2_6, Q9C0E4 (Q9C0E4 648-740): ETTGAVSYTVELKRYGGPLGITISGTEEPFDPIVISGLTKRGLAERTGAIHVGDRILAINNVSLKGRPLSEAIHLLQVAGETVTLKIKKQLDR

TJP1_3, Q07157 = biological target: TJP1_3, Q07157
Chain of TJP1_3, Q07157 (Q07157 416-512): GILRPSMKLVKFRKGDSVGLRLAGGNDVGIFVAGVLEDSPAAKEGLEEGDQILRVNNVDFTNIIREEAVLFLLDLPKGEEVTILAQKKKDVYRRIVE

CASK, O14936 = biological target: CASK, O14936
Chain of CASK, O14936 (O14936 487-570): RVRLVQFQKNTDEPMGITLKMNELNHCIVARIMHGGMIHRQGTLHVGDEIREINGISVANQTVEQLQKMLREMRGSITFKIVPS

SNTA1, Q13424 = biological target: T8, SNTA1, Q13424
LIN7C, Q9NUP9 = biological target: T9, LIN7C, Q9NUP9
SNTG1, Q9NSN8 = biological target: T10, SNTG1, Q9NSN8

Row | pKd (MPDZ_10, O75970) | pKd (RAPGEF6, Q8TEU7) | pKd (LDB3, O75112) | pKd (GOPC, Q9HD26) | pKd (APBA3_1, O96018) | pKd (FRMPD2_2, Q68DX3) | pKd (SCRIB_1, Q14160) | pKd (PARD3B_1, Q8TEW8) | pKd (NHERF2_2, Q15599) | pKd (GIPC2, Q8TF65) | pKd (MAGI2_2, Q86UL8) | pKd (Inadl_1, Q8NI35) | pKd (MAGI2_3, Q86UL8) | pKd (FRMPD4, Q14CM0) | pKd (GRID2IP_1, A4D2P6) | pKd (MPDZ_12, O75970) | pKd (NHERF3_1, Q5T2W1) | pKd (DFNB31_3, Q9P202) | pKd (DLG2_2, Q15700) | pKd (DLG5_1, Q8TDM6) | Binder | other results
1 | below the threshold | below the threshold | below the threshold | below the threshold | below the threshold | below the threshold | below the threshold | 4.3 | below the threshold | below the threshold | below the threshold | below the threshold | below the threshold | below the threshold | below the threshold | below the threshold | below the threshold | 3.76 | below the threshold | below the threshold | EDLEDEWEVI [TECPR2, O15040] | pKd (IL16_4, Q14005): below the threshold; pKd (DLG2_3, Q15700): 3.77; pKd (GRIP2_6, Q9C0E4): below the threshold; pKd (TJP1_3, Q07157): below the threshold; pKd (CASK, O14936): below the threshold; pKd (SNTA1, Q13424): below the threshold; pKd (LIN7C, Q9NUP9): below the threshold; pKd (SNTG1, Q9NSN8): below the threshold
2 | below the threshold | below the threshold | below the threshold | below the threshold | below the threshold | below the threshold | below the threshold | 3.67 | 3.59 | below the threshold | below the threshold | below the threshold | below the threshold | 4.03 | below the threshold | below the threshold | 4.07 | below the threshold | below the threshold | below the threshold | QLSFNTDTLC [ABCA2, Q9BZC7] | pKd (IL16_4, Q14005): below the threshold; pKd (DLG2_3, Q15700): 3.73; pKd (GRIP2_6, Q9C0E4): below the threshold; pKd (TJP1_3, Q07157): below the threshold; pKd (CASK, O14936): below the threshold; pKd (SNTA1, Q13424): below the threshold; pKd (LIN7C, Q9NUP9): below the threshold; pKd (SNTG1, Q9NSN8): below the threshold
3 | below the threshold | below the threshold | below the threshold | below the threshold | below the threshold | below the threshold | below the threshold | 3.91 | 4.18 | below the threshold | below the threshold | below the threshold | below the threshold | below the threshold | below the threshold | below the threshold | below the threshold | below the threshold | below the threshold | below the threshold | EKCGKEFSEF [PRKACA, P17612] | pKd (IL16_4, Q14005): below the threshold; pKd (DLG2_3, Q15700): 3.74; pKd (GRIP2_6, Q9C0E4): below the threshold; pKd (TJP1_3, Q07157): below the threshold; pKd (CASK, O14936): below the threshold; pKd (SNTA1, Q13424): below the threshold; pKd (LIN7C, Q9NUP9): below the threshold; pKd (SNTG1, Q9NSN8): below the threshold
4 | below the threshold | 3.54 | below the threshold | below the threshold | below the threshold | 3.61 | below the threshold | 4.39 | below the threshold | below the threshold | below the threshold | below the threshold | below the threshold | 3.7 | below the threshold | 3.5 | 3.86 | 3.91 | below the threshold | below the threshold | QKAPTKEFYA [SDC2, P34741] | pKd (IL16_4, Q14005): below the threshold; pKd (DLG2_3, Q15700): 3.83; pKd (GRIP2_6, Q9C0E4): 4.1; pKd (TJP1_3, Q07157): below the threshold; pKd (CASK, O14936): below the threshold; pKd (SNTA1, Q13424): below the threshold; pKd (LIN7C, Q9NUP9): below the threshold; pKd (SNTG1, Q9NSN8): below the threshold

Source: publication PMC9482650, “Quantitative fragmentomics allow affinity mapping of interactomes” (Nature Communications, 2022)
